In publication PMC4995099, “Drosophila Nanos acts as a molecular clamp that modulates the RNA-binding and repression activities of Pumilio” one finds binding result, percent repression of the RnLuc WT hb 3´UTR reporter in D.mel-2 cells (endogenous Pum), against Halo-tag alone and Kd data, which are given here for nine molecules.

The target in data set [1] is T1, Pum PUM-HD WT (EMSA) (UniProt P25822 1091-1426).
T1 sequence: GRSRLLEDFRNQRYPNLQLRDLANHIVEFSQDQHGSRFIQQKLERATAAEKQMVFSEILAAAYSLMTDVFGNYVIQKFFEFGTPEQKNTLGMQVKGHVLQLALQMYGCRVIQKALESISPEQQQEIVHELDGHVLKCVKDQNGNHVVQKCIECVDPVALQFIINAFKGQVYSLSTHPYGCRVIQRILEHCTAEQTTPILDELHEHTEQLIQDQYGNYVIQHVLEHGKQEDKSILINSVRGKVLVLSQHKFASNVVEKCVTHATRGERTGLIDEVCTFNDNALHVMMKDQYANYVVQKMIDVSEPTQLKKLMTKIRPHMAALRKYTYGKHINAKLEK
As to the kind of experiment: EMSA; no stable binary complex; EMSA: 50 mM Tris-HCl pH 7.6, 150 mM NaCl, 2 mM DTT, 2 ug/mL BSA, 0.01% Igepal CA-630, 0.02% bromophenol blue, 20% glycerol, 3 h at 4 C; 1 nM Cy5 RNA or 0.3 nM 32P RNA. The note with it: protein: recombinant; tags: N-terminal 3xFLAG; Halo-tag removed by TEV; label: 5' 32P. A general note: A gel shift assay detects complexes by their altered migration in electrophoresis.

The target in data set [2] is T2, Pum PUM-HD WT (EMSA);Nos ZC WT (EMSA) (Drosophila melanogaster?;Drosophila …, UniProt P25822;P25724 1091-1426;289-401, |).
T2 sequence 1: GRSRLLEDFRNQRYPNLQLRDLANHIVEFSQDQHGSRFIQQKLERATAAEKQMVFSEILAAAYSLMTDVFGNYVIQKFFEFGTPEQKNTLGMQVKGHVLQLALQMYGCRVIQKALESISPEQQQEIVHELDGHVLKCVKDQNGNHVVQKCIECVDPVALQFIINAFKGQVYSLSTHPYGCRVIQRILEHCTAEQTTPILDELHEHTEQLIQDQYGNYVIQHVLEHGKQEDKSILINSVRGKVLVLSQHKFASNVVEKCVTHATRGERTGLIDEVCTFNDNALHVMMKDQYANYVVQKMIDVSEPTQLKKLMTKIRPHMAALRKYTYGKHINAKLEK
T2 sequence 2: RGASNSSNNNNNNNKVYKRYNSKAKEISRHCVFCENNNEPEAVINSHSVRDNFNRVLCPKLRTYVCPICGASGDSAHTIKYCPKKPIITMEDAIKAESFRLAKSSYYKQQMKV
As to the kind of experiment: EMSA; 1 uM Nos ZC; Kd only in figure; EMSA: 50 mM Tris-HCl pH 7.6, 150 mM NaCl, 2 mM DTT, 2 ug/mL BSA, 0.01% Igepal CA-630, 0.02% bromophenol blue, 20% glycerol, 3 h at 4 C; 1 nM Cy5 RNA or 0.3 nM 32P RNA. As to conditions: protein: recombinant;recombinant, tags: N-terminal 3xFLAG, Halo-tag removed by TEV;C-terminal V5, copies: 1;1, label: 5' 32P.

In data set [3] the target is T3, Drosophila Pum RNA-binding domain (amino acids 1091–1426), crystallisation construct (Drosophila melanogaster) (UniProt P25822).
T3 sequence: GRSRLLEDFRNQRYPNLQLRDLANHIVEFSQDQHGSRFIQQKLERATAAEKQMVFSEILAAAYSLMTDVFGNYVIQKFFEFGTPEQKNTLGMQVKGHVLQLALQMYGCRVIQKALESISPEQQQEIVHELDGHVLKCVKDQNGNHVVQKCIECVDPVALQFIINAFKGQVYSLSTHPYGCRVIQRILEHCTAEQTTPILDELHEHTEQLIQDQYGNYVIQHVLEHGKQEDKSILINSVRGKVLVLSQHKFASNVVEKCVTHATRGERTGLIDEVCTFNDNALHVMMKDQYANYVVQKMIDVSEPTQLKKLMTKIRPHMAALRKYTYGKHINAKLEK

Data set [4] addresses T1, Pum PUM-HD WT (EMSA). Briefly: EMSA; EMSA: 50 mM Tris-HCl pH 7.6, 150 mM NaCl, 2 mM DTT, 2 ug/mL BSA, 0.01% Igepal CA-630, 0.02% bromophenol blue, 20% glycerol, 3 h at 4 C; 1 nM Cy5 RNA or 0.3 nM 32P RNA. The note with it: protein: recombinant; tags: N-terminal 3xFLAG; Halo-tag removed by TEV.
Data set [5] has as its target T2, Pum PUM-HD WT (EMSA);Nos ZC WT (EMSA). Briefly: EMSA; 1 uM Nos ZC; N/D; EMSA: 50 mM Tris-HCl pH 7.6, 150 mM NaCl, 2 mM DTT, 2 ug/mL BSA, 0.01% Igepal CA-630, 0.02% bromophenol blue, 20% glycerol, 3 h at 4 C; 1 nM Cy5 RNA or 0.3 nM 32P RNA. The note with it: protein: recombinant;recombinant, tags: N-terminal 3xFLAG, Halo-tag removed by TEV;C-terminal V5, copies: 1;1, label: 5' 32P.

Data set [6] deals with T1, Pum PUM-HD WT (EMSA). As to the kind of experiment: EMSA; N/D; EMSA: 50 mM Tris-HCl pH 7.6, 150 mM NaCl, 2 mM DTT, 2 ug/mL BSA, 0.01% Igepal CA-630, 0.02% bromophenol blue, 20% glycerol, 3 h at 4 C; 1 nM Cy5 RNA or 0.3 nM 32P RNA. The note with it: protein: recombinant; tags: N-terminal 3xFLAG; Halo-tag removed by TEV; label: 5' 32P.
Data set [7] addresses T4, Pum RNA-binding domain (aa1091-1426) with N-terminal triple FLAG tag, EMSA construct (Drosophila melanogaster, UniProt P25822-1 1091-1426).
T4 chain: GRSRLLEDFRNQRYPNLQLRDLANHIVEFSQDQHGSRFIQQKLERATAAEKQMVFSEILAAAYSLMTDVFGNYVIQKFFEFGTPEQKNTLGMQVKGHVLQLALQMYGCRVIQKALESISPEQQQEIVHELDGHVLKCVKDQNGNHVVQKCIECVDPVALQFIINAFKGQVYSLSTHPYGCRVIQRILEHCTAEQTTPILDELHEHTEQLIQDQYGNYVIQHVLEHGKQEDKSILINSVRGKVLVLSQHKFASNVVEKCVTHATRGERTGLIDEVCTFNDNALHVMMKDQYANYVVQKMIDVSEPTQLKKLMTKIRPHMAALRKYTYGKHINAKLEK
Briefly: EMSA, Nos binding to Pum–hb NRE2 RNA complex (100 nM Pum).

As for GAAUUGUAUAUAUUCG (ssRNA) [hb NRE1 RNA], the binding result with Pum PUM-HD WT (EMSA) [1] was “no binding”; in data set [2], “binds”.

B1: Halo-Nos Δ376–382 (aa1-375 + 383–401) (natural protein)
chain: MFRSNLEGSGAAADNFSAFHARGGLNILGLQDMYLDTSGANSSATLSPPITPVTPDPSTSAQSTHFPFLADSAATANSLLMQRQYHYHLLLQQQQQLAMAQHQLALAASAAAASASHQQTDEIARSLKIFAQVTTGAAENAAGSMQDVMQEFATNGYASDDLGRMSYGSAPPQVQMPPQQQHQQQQGLHLPLGRNPAQLQTNGGNLMPIPLATHWLNNYREHLNNVWRNMSYIPAAPNTMGLQAQTAATVSTNLGVGMGLGLPVQGEQLRGASNSSNNNNNNNKVYKRYNSKAKEISRHCVFCENNNEPEAVINSHSVRDNFNRVLCPKLRTYVCPICGASGDSAHTIKYCPKKPIKAESFRLAKSSYYKQQMKV
In data set [3], B1 had a percent repression of the RnLuc WT hb 3´UTR reporter in D.mel-2 cells (endogenous Pum), against Halo-tag alone of 27%.

B2: Halo-Nos Δ383–393 (aa1-382 + 394–401) (natural protein)
chain: MFRSNLEGSGAAADNFSAFHARGGLNILGLQDMYLDTSGANSSATLSPPITPVTPDPSTSAQSTHFPFLADSAATANSLLMQRQYHYHLLLQQQQQLAMAQHQLALAASAAAASASHQQTDEIARSLKIFAQVTTGAAENAAGSMQDVMQEFATNGYASDDLGRMSYGSAPPQVQMPPQQQHQQQQGLHLPLGRNPAQLQTNGGNLMPIPLATHWLNNYREHLNNVWRNMSYIPAAPNTMGLQAQTAATVSTNLGVGMGLGLPVQGEQLRGASNSSNNNNNNNKVYKRYNSKAKEISRHCVFCENNNEPEAVINSHSVRDNFNRVLCPKLRTYVCPICGASGDSAHTIKYCPKKPIITMEDAIYYKQQMKV
Consider B2, for which the percent repression of the RnLuc WT hb 3´UTR reporter in D.mel-2 cells (endogenous Pum), against Halo-tag alone in data set [3] was determined as 43%.
Turning to AAACUGUACAUAAGCC (ssRNA) [hb NRE2 -1C RNA], in the data set with Pum PUM-HD WT (EMSA) [4], the binding result is recorded as “binds”.
On to UGAUUGUAGAUAUCUA (ssRNA) [bcd NRE RNA], for which the binding result with Pum PUM-HD WT (EMSA) [1] was “no binding”; in data set [2], “binds”.
As to AACUUGUACAUAAGCC (ssRNA) [hb NRE2 -2C RNA], the binding result in the data set with Pum PUM-HD WT (EMSA) [4] is reported as “binds”.
Take AAAUACAACAUAAGCC (ssRNA) [hb NRE2 ACA RNA]: the binding result (in data set [5]; with Pum PUM-HD WT (EMSA) [6]) was “no binding” each time.

B3: Halo-tagged, full-length Nos protein (NZC) (natural protein)
chain: MFRSNLEGSGAAADNFSAFHARGGLNILGLQDMYLDTSGANSSATLSPPITPVTPDPSTSAQSTHFPFLADSAATANSLLMQRQYHYHLLLQQQQQLAMAQHQLALAASAAAASASHQQTDEIARSLKIFAQVTTGAAENAAGSMQDVMQEFATNGYASDDLGRMSYGSAPPQVQMPPQQQHQQQQGLHLPLGRNPAQLQTNGGNLMPIPLATHWLNNYREHLNNVWRNMSYIPAAPNTMGLQAQTAATVSTNLGVGMGLGLPVQGEQLRGASNSSNNNNNNNKVYKRYNSKAKEISRHCVFCENNNEPEAVINSHSVRDNFNRVLCPKLRTYVCPICGASGDSAHTIKYCPKKPIITMEDAIKAESFRLAKSSYYKQQMKV
As for B3, the percent repression of the RnLuc WT hb 3´UTR reporter in D.mel-2 cells (endogenous Pum), against Halo-tag alone in data set [3] is 70%.

B4: Nos ZC (aa289-401) with C-terminal V5 epitope, EMSA construct (domain or fragment)
chain: RGASNSSNNNNNNNKVYKRYNSKAKEISRHCVFCENNNEPEAVINSHSVRDNFNRVLCPKLRTYVCPICGASGDSAHTIKYCPKKPIITMEDAIKAESFRLAKSSYYKQQMKV
modifications: two Zn2+ bound by the CCHC zinc fingers; C-terminal V5 epitope omitted
For the molecule B4, in data set [7], binding was characterised by a dissociation constant (Kd) of 4.6 nM.

The term Kd denotes the concentration at which binding is half-saturated. A low value points to a tighter complex.
